Laboratory results as given in publication PMC6009646, “Regional conformational flexibility couples substrate specificity and scissile phosphate diester selectivity in human flap endonuclease 1”.

Molecular target: hFEN1QF (Homo sapiens, UniProt P39748 1-336, E120C;C235A;S293C;C311A)
Test: single-molecule FRET; 8 mM Ca2+; 20 nM DNA, ~50 pM protein; NMR: 10 mM HEPES-KOH pH 7.5, 6 mM KCl (76 mM KCl in titration), 0.1 mM EDTA, 4 mM NaN3, 100 mM bME, 298 K; smFRET: 55 mM HEPES-KOH pH 7.5, 110 mM KCl, 8 mM CaCl2, 0.1 mg/ml BSA, 1 mM DTT, room temperature
Settings: protein: recombinant; tags: C-terminal HRV 3C-cleavable His6, cleaved; six residual C-terminal residues of the 3C site; bimolecular double flap: 5-nt 5' flap, 1-nt 3' flap; T1 has a GAA hairpin; F1:T1 annealed 1:1.1

hFEN1QF, sequence (P39748 1-336 E120C/C235A/S293C/C311A): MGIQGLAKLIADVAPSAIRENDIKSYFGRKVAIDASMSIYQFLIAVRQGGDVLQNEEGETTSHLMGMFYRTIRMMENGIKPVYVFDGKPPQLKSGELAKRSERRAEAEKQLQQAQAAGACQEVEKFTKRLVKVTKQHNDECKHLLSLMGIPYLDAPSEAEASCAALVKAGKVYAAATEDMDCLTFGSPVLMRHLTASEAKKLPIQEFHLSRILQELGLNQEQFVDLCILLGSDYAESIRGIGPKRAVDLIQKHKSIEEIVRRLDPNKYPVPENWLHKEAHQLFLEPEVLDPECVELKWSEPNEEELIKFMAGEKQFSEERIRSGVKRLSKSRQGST

B1: DF5,1 (F1/T1) (structured_DNA)
DNA 1: TTTTTACAAGGACTGCTCGACAC
DNA 2: GTGTCGAGCAGTCCTTGTGACGACGAAGTCGTCC
B1: binds.
